Laboratory results taken from doi:10.1101/2021.04.29.441928.

How the values were obtained:
Assay in all cases: co-IP
CD4 R426A (mouse) = CD4 R426A (mouse) (UniProt P06332)
CD4 Dbl (mouse) = CD4 Dbl (mouse) (UniProt P06332)
CD4 WT (mouse) = CD4 WT (mouse) (UniProt P06332)
CD4 R449A (mouse) = CD4 R449A (mouse) (UniProt P06332)
CD4 K452A (mouse) = CD4 K452A (mouse) (UniProt P06332)

Sequence of Lck (P06240 whole entry): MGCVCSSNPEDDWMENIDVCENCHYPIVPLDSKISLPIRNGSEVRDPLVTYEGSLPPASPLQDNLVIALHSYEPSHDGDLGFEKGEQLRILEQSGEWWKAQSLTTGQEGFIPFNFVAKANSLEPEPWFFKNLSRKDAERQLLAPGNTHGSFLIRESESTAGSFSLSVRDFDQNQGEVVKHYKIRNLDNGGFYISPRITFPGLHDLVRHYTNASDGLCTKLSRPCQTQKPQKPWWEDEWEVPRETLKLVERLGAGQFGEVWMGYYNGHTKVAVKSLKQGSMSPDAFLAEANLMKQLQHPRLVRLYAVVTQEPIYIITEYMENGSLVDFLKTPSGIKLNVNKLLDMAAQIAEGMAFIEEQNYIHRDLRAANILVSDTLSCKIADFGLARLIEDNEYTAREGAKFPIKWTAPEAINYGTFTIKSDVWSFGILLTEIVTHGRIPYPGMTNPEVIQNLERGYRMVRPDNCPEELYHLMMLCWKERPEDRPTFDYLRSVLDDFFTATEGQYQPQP

total AUC of the raw Lck signal co-IP'd with CD4 (CD4 R426A (mouse)): 2920 | total AUC of the raw Lck signal co-IP'd with CD4 (CD4 Dbl (mouse)): 2160 | total AUC of the raw Lck signal co-IP'd with CD4 (CD4 WT (mouse)): 2630 | total AUC of the raw Lck signal co-IP'd with CD4 (CD4 R449A (mouse)): 2640 | total AUC of the raw Lck signal co-IP'd with CD4 (CD4 K452A (mouse)): 2380
Substance: Lck (from UniProt P06240 1-509) (enzyme)
